{
  "source": "patent US20120058126A1",
  "key": {"[1]": {"target": "human sR3-AP (Ig domains 1-3) P219L (human) (UniProt P05187)", "sequence (P05187 other isoform, or with tags, fused parts or gaps P219L P219L)": "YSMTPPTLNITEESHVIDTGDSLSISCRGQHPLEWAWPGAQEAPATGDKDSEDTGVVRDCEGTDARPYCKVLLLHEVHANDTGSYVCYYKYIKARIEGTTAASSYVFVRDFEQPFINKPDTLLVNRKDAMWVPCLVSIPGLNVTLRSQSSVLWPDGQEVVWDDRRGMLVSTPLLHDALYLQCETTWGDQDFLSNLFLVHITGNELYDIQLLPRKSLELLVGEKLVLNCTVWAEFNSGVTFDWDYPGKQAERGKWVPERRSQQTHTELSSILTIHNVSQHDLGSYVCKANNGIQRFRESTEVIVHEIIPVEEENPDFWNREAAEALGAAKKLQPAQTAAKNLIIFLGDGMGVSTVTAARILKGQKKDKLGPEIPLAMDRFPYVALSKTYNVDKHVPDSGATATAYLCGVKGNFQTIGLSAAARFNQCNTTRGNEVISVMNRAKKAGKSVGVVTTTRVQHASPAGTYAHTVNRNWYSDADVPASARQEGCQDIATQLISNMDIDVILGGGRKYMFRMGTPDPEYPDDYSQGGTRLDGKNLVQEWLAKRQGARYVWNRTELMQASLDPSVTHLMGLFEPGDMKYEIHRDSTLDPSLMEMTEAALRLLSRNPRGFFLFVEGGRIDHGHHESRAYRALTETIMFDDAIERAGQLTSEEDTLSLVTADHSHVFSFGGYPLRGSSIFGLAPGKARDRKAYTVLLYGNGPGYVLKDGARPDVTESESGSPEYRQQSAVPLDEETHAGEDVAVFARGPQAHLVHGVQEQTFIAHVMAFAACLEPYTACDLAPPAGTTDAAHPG", "test": "sR3-AP binding assay: conditioned medium on VEGF-CΔNΔC-coated plates, AP chemiluminescence, triplicate"}, "[2]": {"target": "human sR3-AP (Ig domains 1-3) V175A (human) (UniProt P05187)", "sequence (P05187 other isoform, or with tags, fused parts or gaps V175A V175A)": "as the sequence (P05187 other isoform, or with tags, fused parts or gaps P219L P219L) above, with V151A, L195P counted along it", "test": "sR3-AP binding assay: conditioned medium on VEGF-CΔNΔC-coated plates, AP chemiluminescence, triplicate"}},
  "data": [
    {"substance": "recombinant mature human VEGF-CΔNΔC (from UniProt P49767 112-215) (ligand)", "values": [
      {"measurement": "loss of binding against wild-type human sR3-AP", "setting": "[1]", "result": 75, "unit": "%"},
      {"measurement": "loss of binding against wild-type human sR3-AP", "setting": "[2]", "result": 50, "unit": "%"}
    ]}
  ]
}
